{
  "source": "IntAct's records for PubMed 16890161",
  "parents": {"B1": {"name": "Low-density lipoprotein receptor-related protein 6 (Homo sapiens), O75581 (parent)", "chain": "MGAVLRSLLACSFCVLLRAAPLLLYANRRDLRLVDATNGKENATIVVGGLEDAAAVDFVFSHGLIYWSDVSEEAIKRTEFNKTESVQNVVVSGLLSPDGLACDWLGEKLYWTDSETNRIEVSNLDGSLRKVLFWQELDQPRAIALDPSSGFMYWTDWGEVPKIERAGMDGSSRFIIINSEIYWPNGLTLDYEEQKLYWADAKLNFIHKSNLDGTNRQAVVKGSLPHPFALTLFEDILYWTDWSTHSILACNKYTGEGLREIHSDIFSPMDIHAFSQQRQPNATNPCGIDNGGCSHLCLMSPVKPFYQCACPTGVKLLENGKTCKDGATELLLLARRTDLRRISLDTPDFTDIVLQLEDIRHAIAIDYDPVEGYIYWTDDEVRAIRRSFIDGSGSQFVVTAQIAHPDGIAVDWVARNLYWTDTGTDRIEVTRLNGTMRKILISEDLEEPRAIVLDPMVGYMYWTDWGEIPKIERAALDGSDRVVLVNTSLGWPNGLALDYDEGKIYWGDAKTDKIEVMNTDGTGRRVLVEDKIPHIFGFTLLGDYVYWTDWQRRSIERVHKRSAEREVIIDQLPDLMGLKATNVHRVIGSNPCAEENGGCSHLCLYRPQGLRCACPIGFELISDMKTCIVPEAFLLFSRRADIRRISLETNNNNVAIPLTGVKEASALDFDVTDNRIYWTDISLKTISRAFMNGSALEHVVEFGLDYPEGMAVDWLGKNLYWADTGTNRIEVSKLDGQHRQVLVWKDLDSPRALALDPAEGFMYWTEWGGKPKIDRAAMDGSERTTLVPNVGRANGLTIDYAKRRLYWTDLDTNLIESSNMLGLNREVIADDLPHPFGLTQYQDYIYWTDWSRRSIERANKTSGQNRTIIQGHLDYVMDILVFHSSRQSGWNECASSNGHCSHLCLAVPVGGFVCGCPAHYSLNADNRTCSAPTTFLLFSQKSAINRMVIDEQQSPDIILPIHSLRNVRAIDYDPLDKQLYWIDSRQNMIRKAQEDGSQGFTVVVSSVPSQNLEIQPYDLSIDIYSRYIYWTCEATNVINVTRLDGRSVGVVLKGEQDRPRAVVVNPEKGYMYFTNLQERSPKIERAALDGTEREVLFFSGLSKPIALALDSRLGKLFWADSDLRRIESSDLSGANRIVLEDSNILQPVGLTVFENWLYWIDKQQQMIEKIDMTGREGRTKVQARIAQLSDIHAVKELNLQEYRQHPCAQDNGGCSHICLVKGDGTTRCSCPMHLVLLQDELSCGEPPTCSPQQFTCFTGEIDCIPVAWRCDGFTECEDHSDELNCPVCSESQFQCASGQCIDGALRCNGDANCQDKSDEKNCEVLCLIDQFRCANGQCIGKHKKCDHNVDCSDKSDELDCYPTEEPAPQATNTVGSVIGVIVTIFVSGTVYFICQRMLCPRMKGDGETMTNDYVVHGPASVPLGYVPHPSSLSGSLPGMSRGKSMISSLSIMGGSSGPPYDRAHVTGASSSSSSSTKGTYFPAILNPPPSPATERSHYTMEFGYSSNSPSTHRSYSYRPYSYRHFAPPTTPCSTDVCDSDYAPSRRMTSVATAKGYTSDLNYDSEPVPPPPTPRSQYLSAEENYESCPPSPYTERSYSHHLYPPPPSPCTDSS"}},
  "data": [
    {"variants_of": "B1", "details": "with axin1_rat Axin1, O70239", "values": [
      {"variant": "S1490A", "effect of a mutation on the interaction": "decreasing interaction"}
    ]}
  ]
}
